Results: patent US20230287092A1 (AstraZeneca / MedImmune, published 2023)

Biological target: cynomolgus monkey Aβ42 (cynomolgus monkey, UniProt P53601 672-713)
Experiment: cell-based or functional assay

Sequence of cynomolgus monkey Aβ42 (P53601 672-713 limits assumed): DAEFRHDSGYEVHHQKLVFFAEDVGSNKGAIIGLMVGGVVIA

B1: MEDI1814 (antibody, V domains shown)
VH: EVQLLESGGGLVQPGGSLRLSCAASMGNFNYQTMWWVRQAPGKGLEWVSVIGKTNENIAYADSVKGRFTISRDNSKNTLYLQMNSLRAEDTAVYYCAREWMDHSRPYYYYGMDVWGQGTLVTVSS
VL: SYELTQPPSVSVSPGQTASITCSGHNLEDKFASWYQQKPGQSPVLVIYRDDKRPSGIPERFSASNSGHTATLTISGTQAMDEADYYCSSQDTVTRVFGGGTKLTVL
  increase in total CSF Aβ42, 14 weekly doses, cynomolgus monkeys: ≤ 7.7 fold
  increase in total plasma Aβ42 against control, 14 weekly doses (10 or 100 mg/kg IV, 75 mg/kg SC), cynomolgus monkeys: ≤ 2060 fold
